# Laboratory results published in article PMC5198506, “Mechanistic differences between HIV-1 and SIV nucleocapsid proteins and cross-species HIV-1 genomic RNA recognition”.
# B1: SIV TAR RNA (structured_RNA)
# RNA: AGUCGCUCUGCGGAGAGGCUGGCAGAUUGAGCCCUGGGAGGUUCUCUCCAGCACUAGCAGGUAGAGCCUGGGUGUUCCCUGCUAGACUCUCACCAGCACUUGGCCGGUGCUGGGCAGAGUGACU
# B2: HIV-1 TARpolyA RNA (structured_RNA)
# RNA: GGUCUCUCUGGUUAGACCAGAUCUGAGCCUGGGAGCUCUCUGGCUAACUAGGGAACCCACUGCUUAAGCCUCAAUAAAGCUUGCCUUGAGUGCUCAAAGUAGUG
# B3: SIV Psi RNA (WT) (structured_RNA)
# RNA: CCACGACGGAGUGCUCCUAUAAAGACGCGGGUCGGUACCAGACGGCGUGAGGAGCGGGAGAGGAAGAGGCCUCCGGUUGCAGGUAAGUGCAACACAAAAAAGAAAUAGCUGUCUUUUAUCCAGGAAGGGGUAAUAAGAUAGAGUGG
# What was measured:
# HIV-1 NC (HIV-1 NL4-3) [1] = biological target: HIV-1 NC (HIV-1 NL4-3) (UniProt P12493); assay: fluorescence anisotropy salt titration; details: FA: 20 mM HEPES pH 7.5, 30-750 mM NaCl, 1 mM MgCl2, 20 µM TCEP, 5 mM 2-mercaptoethanol, room temperature, 400 nM NC, 10 nM RNA (Gag: 20 nM RNA, plus 2 mM …)
# SIV NC (SIVmne) [2] = assay: fluorescence anisotropy salt titration; details: FA: 20 mM HEPES pH 7.5, 30-750 mM NaCl, 1 mM MgCl2, 20 µM TCEP, 5 mM 2-mercaptoethanol, room temperature, 400 nM NC, 10 nM RNA (Gag: 20 nM RNA, plus 2 mM …)
# HIV-1 NC (HIV-1 NL4-3) [3] = biological target: HIV-1 NC (HIV-1 NL4-3) (UniProt P12493); assay: single-molecule DNA stretching; details: FA: 20 mM HEPES pH 7.5, 30-750 mM NaCl, 1 mM MgCl2, 20 µM TCEP, 5 mM 2-mercaptoethanol, room temperature, 400 nM NC, 10 nM RNA (Gag: 20 nM RNA, plus 2 mM …)
# SIV NC (SIVmne) [4] = assay: single-molecule DNA stretching; details: FA: 20 mM HEPES pH 7.5, 30-750 mM NaCl, 1 mM MgCl2, 20 µM TCEP, 5 mM 2-mercaptoethanol, room temperature, 400 nM NC, 10 nM RNA (Gag: 20 nM RNA, plus 2 mM …)
# HIV-1 NC [5] = biological target: T1, HIV-1 NC (HIV-1 NL4-3, UniProt P12493 378-432); assay: fluorescence anisotropy salt titration; Kd(1M) extrapolated to 1 M NaCl; Zeff 2.6 ± 0.4; FA: 20 mM HEPES pH 7.5, 30-750 mM NaCl, 1 mM MgCl2, 20 µM TCEP, 5 mM 2-mercaptoethanol, room temperature, 400 nM NC, 10 nM RNA (Gag: 20 nM RNA, plus 2 mM Tris-HCl pH 7.4); stretching buffer not in material; details: protein: recombinant; label: 3' fluorescein (thiosemicarbazide); hairpin
# HIV-1 NC [6] = biological target: T1, HIV-1 NC; assay: fluorescence anisotropy salt titration; Kd(1M) extrapolated to 1 M NaCl; Zeff 2.4 ± 0.4; FA: 20 mM HEPES pH 7.5, 30-750 mM NaCl, 1 mM MgCl2, 20 µM TCEP, 5 mM 2-mercaptoethanol, room temperature, 400 nM NC, 10 nM RNA (Gag: 20 nM RNA, plus 2 mM Tris-HCl pH 7.4); stretching buffer not in material; details: protein: recombinant; label: 3' fluorescein (thiosemicarbazide); hairpin
# HIV-1 NC [7] = biological target: T1, HIV-1 NC; assay: fluorescence anisotropy salt titration; Kd(1M) extrapolated to 1 M NaCl; Zeff 3.6 ± 0.9; FA: 20 mM HEPES pH 7.5, 30-750 mM NaCl, 1 mM MgCl2, 20 µM TCEP, 5 mM 2-mercaptoethanol, room temperature, 400 nM NC, 10 nM RNA (Gag: 20 nM RNA, plus 2 mM Tris-HCl pH 7.4); stretching buffer not in material; details: protein: recombinant; label: 3' fluorescein (thiosemicarbazide); stem-loops
molecule,measurement,setting,value
HIV-1 Psi RNA (WT),Kd,HIV-1 NC (HIV-1 NL4-3) [1],4 µM
same,Kd,SIV NC (SIVmne) [2],3.9 µM
GGUCUCUCUGGUUAGACCAGAUCUGAGCCUGGGAGCUCUCUGGCUAACUAGGGAACCCACUGCUUAAGCCUCAAUAAAGCUUGCCUUGAGUGCUCAAAGUAGUG [HIV-1 TARpolyA RNA],Kd,SIV NC (SIVmne) [2],82 µM
AGUCGCUCUGCGGAGAGGCUGGCAGAUUGAGCCCUGGGAGGUUCUCUCCAGCACUAGCAGGUAGAGCCUGGGUGUUCCCUGCUAGACUCUCACCAGCACUUGGCCGGUGCUGGGCAGAGUGACU [SIV TAR RNA],Kd,SIV NC (SIVmne) [2],62 µM
dsDNA used for single-molecule stretching,Kd,HIV-1 NC (HIV-1 NL4-3) [3],0.0042 µM
same,Kd,SIV NC (SIVmne) [4],0.0055 µM
CCACGACGGAGUGCUCCUAUAAAGACGCGGGUCGGUACCAGACGGCGUGAGGAGCGGGAGAGGAAGAGGCCUCCGGUUGCAGGUAAGUGCAACACAAAAAAGAAAUAGCUGUCUUUUAUCCAGGAAGGGGUAAUAAGAUAGAGUGG [SIV Psi RNA (WT)],Kd,SIV NC (SIVmne) [2],72 µM
B1,Kd,HIV-1 NC [5],81 µM
B2,Kd,HIV-1 NC [6],120 µM
B3,Kd,HIV-1 NC [7],100 µM
